Measurements from patent US20160009782A1 (Stanford University, published 2016).
Blank lines part the entries; values can stand above or below the binder they belong to.

How the values were obtained:
[1] = target: T1, oligomerized synthetic human Aβ1-42 peptide (oligo-Aβ42) (human, N-terminal biotin (biotinylated peptide used in the cell, neuron and streptavidin pull-down assays)); experiment: oligo-Aβ42 on transfected HEK293 cells, fluorescence, control-vector cells subtracted
T1 construct: Soluble oligomer mixture, mainly high-n oligomers; About 10-20% stays as monomer or low-n oligomer; Concentrations are monomer equivalents of total peptide; this is probably a misprint, since the peptide used was bought as human Aβ1-42; Both biotinylated and non-biotinylated peptides were obtained; also called Aβ42 oligomers; oligomerized Aβ42
Description: (§1) Bottom: bar graphs of average band intensities±SEM from experiments such as that shown in FIG. 10C (n=3; see also FIG. 2H). […] Top, right: Western blot with anti-Aβ antibodies specific for oligomeric forms (OMAB; see FIG. 10D); Bottom, left: quantification of Aβ42 binding. Normalized average band intensities±SEM (n=3).
(§2) The bound Aβ peptides were visualized with streptavidin-Alexa fluorophore conjugates (Alexa 488, 598 or 647; wavelength choice depending on experiments) (J. Lauren, et al. (2009) “Cellular prion protein mediates impairment of synaptic plasticity by amyloid-beta oligomers.” Nature 457, 1128). […] Fluorescent images were captured with fixed illumination and exposure time using a Nikon 20× objective of numerical aperture 0.75, and then fluorescence intensity was quantified using ImageJ software (NIH). In each experiment, values from control vector transfected cells were used as background, and subtracted from those of experimental cells.

[2] = target: T1, oligomerized synthetic human Aβ1-42 …; experiment: synthetic Aβ42 oligomers immunoprecipitated with PirB-Fc proteins, Western blot α-Aβ (6E10), fully reduced
[3] = target: T1, oligomerized synthetic human Aβ1-42 …; experiment: Aβ42 oligomers on transfected HEK293 cells, fluorescence staining
Description: as §2

[4] = target: T1, oligomerized synthetic human Aβ1-42 …; experiment: Aβ42 oligomers pulled down with purified Fc fusion protein, Western blot for Aβ, normalised band intensity (n=3)
Description: as §1, with “Data are mean±SEM (n=5). […] Mean±SEM. […] Bottom:” for “Bottom:”

[5] = target: T1, oligomerized synthetic human Aβ1-42 …; experiment: oligomerized Aβ42 immunoprecipitated with soluble Fc fusion protein, Western blot α-Aβ (4G8) and α-oligo Aβ (OMAB)
Description: as §1, with “Mean±SEM. […] Bottom:” for “Bottom:”
The Aβ signals were quantified as described above.

B2: D3D6 (PirB-Fc) (Fc fusion)
chain: GNLQKPTIKAEPGSVITSKRAMTIWCQGNLDAEVYFLHNEKSQKTQSTQTLQEPGNKGKFFIPSVTLQHAGQYRCYCYGSAGWSQPSDTLELVVTGIYEYYEPRLSVLPSPVVTAGGNMTLHCASDFPYDKFILTKEDKKFGNSLDTEHISSSGQYRALFIIGPTTPTHTGAFRCYGYYKNAPQLWSVPSALQQILISGLSKKPSLLTHQGHILDPGMTLTLQCFSDINYDRFALHKVGGADIMQHSSQQTDTGFSVANFTLGYVSSSTGGQYRCYGAHNLSSEWSASSEPLDILITGQLPLTPSLSVQPNHTVHSGETVSLLCWSMDSVDTFILSKEGSAQQPLRLKSKSHDQQSQAEFSMSAVTSHLSGTYRCYGAQDSSFYLLSSASAPVELTVSGPIETSTPPPTMSMPLGGLHMYLKA
modifications: Fc-mediated homodimer; one chain given
notes: not in the list MOLECULES; also called PirB (D3D6)-Fc; PirB:221-643 (D3D6); not shown: human IgG1-Fc of vector pFUSE-hIgG1e3-Fc2 (InvivoGen) and the cloning-junction residues
binding result [2]: no binding

B3: human LilrB1 expressed in HEK293 cells (receptor, UniProt Q8NHL6 24-650, looked up)
chain: GHLPKPTLWAEPGSVITQGSPVTLRCQGGQETQEYRLYREKKTALWITRIPQELVKKGQFPIPSITWEHAGRYRCYYGSDTAGRSESSDPLELVVTGAYIKPTLSAQPSPVVNSGGNVILQCDSQVAFDGFSLCKEGEDEHPQCLNSQPHARGSSRAIFSVGPVSPSRRWWYRCYAYDSNSPYEWSLPSDLLELLVLGVSKKPSLSVQPGPIVAPEETLTLQCGSDAGYNRFVLYKDGERDFLQLAGAQPQAGLSQANFTLGPVSRSYGGQYRCYGAHNLSSEWSAPSDPLDILIAGQFYDRVSLSVQPGPTVASGENVTLLCQSQGWMQTFLLTKEGAADDPWRLRSTYQSQKYQAEFPMGPVTSAHAGTYRCYGSQSSKPYLLTHPSDPLELVVSGPSGGPSSPTTGPTSTSGPEDQPLTPTGSDPQSGLGRHLGVVIGILVAVILLLLLLLLLFLILRHRRQGKHWTSTQRKADFQHPAGAVGPEPTDRGLQWRSSPAADAQEENLYAAVKHTQPEDGVEMDTRSPHDEDPQAVTYAEVKHSRPRREMASPPSPLSGEFLDTKDRQAEEDRQMDTEAAASEAPQDVTYAQLHSLTLRREATEPPPSQEGPSPAVPSIYATLAIH
notes: whole, on cells; not shown: C-terminal Myc tag
binding result [3]: no binding (tested: 200 nM)

B4: LilrB2 (D3D4)-Fc, LilrB2 residues 219-458 fused to human IgG1-Fc (Fc fusion)
chain: PGVSKKPSLSVQPGPVVAPGESLTLQCVSDVGYDRFVLYKEGERDLRQLPGRQPQAGLSQANFTLGPVSRSYGGQYRCYGAHNLSSECSAPSDPLDILITGQIRGTPFISVQPGPTVASGENVTLLCQSWRQFHTFLLTKAGAADAPLRLRSIHEYPKYQAEFPMSPVTSAHAGTYRCYGSLNSDPYLLSHPSEPLELVVSGPSMGSSPPPTGPISTPAGPEDQPLTPTGSDPQSGLGRH
notes: not shown: human IgG1-Fc from the pFUSE-hIgG1e3-Fc2 vector (InvivoGen); exact limits, linker and any engineered changes are not sta
binding result [4]: no binding

Results, then the binder that gave them:

binding result [1]: no binding (tested: 200 nM)
B1: human killer immune receptor Kir (3DL1) expressed in HEK293 cells (receptor, UniProt P43629 22-444, looked up)
chain: HMGGQDKPFLSAWPSAVVPRGGHVTLRCHYRHRFNNFMLYKEDRIHIPIFHGRIFQESFNMSPVTTAHAGNYTCRGSHPHSPTGWSAPSNPVVIMVTGNHRKPSLLAHPGPLVKSGERVILQCWSDIMFEHFFLHKEGISKDPSRLVGQIHDGVSKANFSIGPMMLALAGTYRCYGSVTHTPYQLSAPSDPLDIVVTGPYEKPSLSAQPGPKVQAGESVTLSCSSRSSYDMYHLSREGGAHERRLPAVRKVNRTFQADFPLGPATHGGTYRCFGSFRHSPYEWSDPSDPLLVSVTGNPSSSWPSPTEPSSKSGNPRHLHILIGTSVVIILFILLLFFLLHLWCSNKKNAAVMDQEPAGNRTANSEDSDEQDPEEVTYAQLDHCVFTQRKITRPSQRPKTPPTDTILYTELPNAKPRSKVVSCP
notes: whole, on cells

binding result [5]: no binding
B5: PirB (D5D6)-Fc, PirB residues 419-643 fused to human IgG1-Fc (Fc fusion)
chain: GLSKKPSLLTHQGHILDPGMTLTLQCFSDINYDRFALHKVGGADIMQHSSQQTDTGFSVANFTLGYVSSSTGGQYRCYGAHNLSSEWSASSEPLDILITGQLPLTPSLSVQPNHTVHSGETVSLLCWSMDSVDTFILSKEGSAQQPLRLKSKSHDQQSQAEFSMSAVTSHLSGTYRCYGAQDSSFYLLSSASAPVELTVSGPIETSTPPPTMSMPLGGLHMYLKA
notes: Used as the negative control in the pull-down assays; not shown: human IgG1-Fc from the pFUSE-hIgG1e3-Fc2 vector (InvivoGen); exact limits, linker and any engineered changes are not sta
